Laboratory results: patent US20150011462A1 (Novo Nordisk, published 2015)
Numbered stars: 1 amine (or outer) side, 2 acyl side, 3 side chain; on linkers, the order of the positions; unused ones are H or OH. Square brackets hold non-standard residues; d marks the D form. Side chains are listed from the residue outwards. Ends that are not written are not given here. * marks the point of attachment. C22 diacid = O=C(O)CCCCCCCCCCCCCCCCCCCCC(=O)*; C20 diacid = O=C(O)CCCCCCCCCCCCCCCCCCC(=O)*; γGlu = O=C(O)[C@H](CCC(=O)[*:2])N[*:1]; εLys = N[C@@H](CCCCN[*:1])C(=O)[*:2]; Trx = NC[C@H]1CC[C@H](C(=O)O)CC1; AEEA = NCCOCCOCC(=O)O; Aib = CC(C)(N)C(=O)O

Key:
[1] = biological target: T1, human GLP-1 receptor (human, UniProt P43220 24-463); assay: competitive binding (SPA): displacement of 125I-GLP-1(7-36)NH2 from BHK cell membranes with human GLP-1 receptor; low HSA (max. 0.001% final)
T1 construct: whole, on cells
Experimental: (§1) For the receptor binding assay in the presence of low HSA (0.005%) 50 μl of the assay buffer was added to each well of an assay plate. […] For the receptor binding assay in the presence of high HSA (2%) 50 μl of the 8% albumin stock was added to each well of an assay plate. […] Cell membrane aliquots were thawed and diluted to their working concentration. Fifty μl were added to each well in the assay plate. […] WGA SPA beads were suspended in assay buffer at 20 mg/ml. The suspension was diluted to 10 mg/ml in assay buffer just prior to addition to the assay plate. Fifty μl were added to each well in the assay plate. […] A 25 μl aliquot was reserved for measuring total counts/well. […] The assay plate was incubated for 2 h at 30° C. […] The assay plate was centrifuged for 10 min. […] The assay plate was read in a Packard TopCount NXT instrument.

[2] = biological target: T1, human GLP-1 receptor; assay: competitive binding (SPA): displacement of 125I-GLP-1(7-36)NH2 from BHK cell membranes with human GLP-1 receptor; high HSA (2.0% final)
Experimental: as §1

[3] = biological target: T1, human GLP-1 receptor; assay: cell-based or functional assay

IC50 [1]	IC50 [2]	EC50 (pM), in vitro potency, CRE luciferase reporter gene assay in BHK cells expressing the human GLP-1 receptor [3]	Binder
2.2 nM	197 nM	381 pM	H[Aib]EGTFTSDVSSYLEEQAAREFIAWLVRGRGK([εLys-εLys-γGlu-Trx-C20 diacid])GGSK([εLys-εLys-γGlu-Trx-C20 diacid]) (Double-acylated, C-terminally extended GLP-1 analogue made by SPPS)
1.6 nM	21 nM	101 pM	H[Aib]EGTFTSDVSSYLEEQAAREFIAWLVRGRGK([AEEA-AEEA-γGlu-Trx-C22 diacid])GGSK([AEEA-AEEA-γGlu-Trx-C22 diacid]) (Double-acylated, C-terminally extended GLP-1 analogue made by SPPS)
